Data: article PMC8294337 (BBA advances, 2021)

Molecular target: the molecule itself
Test: SDS-PAGE

B1: T74S KcsA (pH-gated potassium channel KcsA with the mutation T74S) (natural protein, UniProt P0A334 1-160, looked up)
chain: MPPMLSGLLARLVKLLLGRHGSALHWRAAGAATVLLVIVLLAGSYLAVLAERGAPGAQLITYPRALWWSVETASTVGYGDLYPVTLWGRLVAVVVMVAGITSFGLVTAALATWFVGREQERRGHFVRHSEKAAEEAYTRTTRALHERFDRLERMLDDNRR
- stoichiometry N: 4
